Results taken from PMC13082787, “A lipoprotein partner for the Escherichia coli outer membrane protein TolC” (eLife, 2026).
Values joined by “and” are separate entries in the source; they are usually repeats but may differ in a detail not shown here. Identical values can stand only once.

How the values were obtained:
[1] = molecular target: T1, Detergent-purified FLAG-tagged TolC (E. coli, UniProt P02930 23-493); assay: ITC; ITC200, 25°C; 230 µM N-terminally His-tagged soluble YbjP injected into 40 µM TolC; 20 mM HEPES pH 7.5, 200 mM NaCl, 0.03% DDM; single-site model; settings: both partners purified
T1 construct: also called TolC-FLAG; source: detergent-purified
T1 sequence (looked up): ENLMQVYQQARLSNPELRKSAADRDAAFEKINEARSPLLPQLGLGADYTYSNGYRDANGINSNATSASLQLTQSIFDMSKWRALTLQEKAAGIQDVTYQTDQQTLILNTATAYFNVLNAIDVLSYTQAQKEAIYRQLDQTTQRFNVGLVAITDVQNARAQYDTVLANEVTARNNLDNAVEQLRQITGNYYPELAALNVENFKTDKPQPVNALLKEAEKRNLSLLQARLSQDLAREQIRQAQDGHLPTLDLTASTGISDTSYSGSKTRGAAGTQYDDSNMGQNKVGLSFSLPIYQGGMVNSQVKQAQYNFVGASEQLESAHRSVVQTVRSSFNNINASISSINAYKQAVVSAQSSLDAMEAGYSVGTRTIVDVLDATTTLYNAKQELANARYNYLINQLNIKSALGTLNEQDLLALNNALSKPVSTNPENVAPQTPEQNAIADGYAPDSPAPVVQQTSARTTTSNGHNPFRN

[2] = molecular target: T2, TolC-FLAG (DDM-purified full-length TolC with a C-terminal FLAG-tag) (E. coli, UniProt P02930 23-493); assay: ITC; N-terminally His-tagged YbjPs at 230 µM injected into 40 µM TolC-FLAG in the cell; 25°C; 20 mM HEPES pH 7.5, 200 mM NaCl, 0.03% (wt/vol) DDM; single-site binding model; two independent measurements; settings: both partners purified
T2 construct: also called FLAG-tagged TolC; source: DDM-purified TolC-FLAG; not shown: FLAG, C-terminal, kept
T2 sequence (looked up): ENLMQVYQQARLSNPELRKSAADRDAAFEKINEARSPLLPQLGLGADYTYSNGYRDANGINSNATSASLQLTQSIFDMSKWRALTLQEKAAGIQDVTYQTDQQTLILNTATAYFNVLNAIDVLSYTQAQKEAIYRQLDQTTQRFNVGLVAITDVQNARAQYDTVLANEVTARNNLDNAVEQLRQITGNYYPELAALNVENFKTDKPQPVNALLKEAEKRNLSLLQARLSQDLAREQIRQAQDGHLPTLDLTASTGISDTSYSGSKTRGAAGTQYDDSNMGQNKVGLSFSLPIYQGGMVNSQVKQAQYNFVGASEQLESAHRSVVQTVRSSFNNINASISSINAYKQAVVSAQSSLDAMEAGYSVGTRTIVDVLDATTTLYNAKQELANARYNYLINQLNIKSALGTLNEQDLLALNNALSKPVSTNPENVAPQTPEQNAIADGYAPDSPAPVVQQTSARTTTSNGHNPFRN

Binder	Kd [1] [µM]	Kd [2]	stoichiometry N [2]
Soluble YbjP (D28-R171) with an N-terminal His-tag (domain or fragment, E. coli, UniProt P75818 28-171, looked up, also called YbjPs; YbjP_(28-171); not shown: His tag, N-terminal, kept) DNGTRSGPCVEGGPDNVAQQFYDYRILHRSNDITALRPYLSDKLATLLSDASRDNNHRELLTNDPFSSRTTLPDSAHVASASTIPNRDARNIPLRVDLKQGDQGWQDEVLMIQEGQCWVIDDVRYLGGSVHATAGTLRQSIENR	~4	–	–
soluble YbjP (YbjPs), residues 28-171, N-terminally His-tagged (domain or fragment, E. coli, UniProt P75818 28-171, looked up, also called YbjP_(28-171); YbjP soluble; source: E. coli BL21 (DE3), purified from the cytoplasm (HisTrap FF, dialysis); not shown: His-tag, N-terminal, kept) DNGTRSGPCVEGGPDNVAQQFYDYRILHRSNDITALRPYLSDKLATLLSDASRDNNHRELLTNDPFSSRTTLPDSAHVASASTIPNRDARNIPLRVDLKQGDQGWQDEVLMIQEGQCWVIDDVRYLGGSVHATAGTLRQSIENR	–	4.1 µM and 5.9 µM and 5 µM	0.64 and 0.42 and 0.53
